Assay [1] concerns the target golgin-84 (also known as GOLGA5) (UniProt Q8TBA6). Briefly: co-immunoprecipitation (IP: c-Myc) from cytosol, western blot quantification. The settings on record: absence of detergent, n=4, parent: est. 1.0, read off a plot. For orientation: In western blotting, separated proteins are transferred to a membrane and probed.
For assay [2], the target named is CASP (encoded by CUX1; isoform 4) (UniProt Q13948). The description is as above. To be noted: absence of detergent, n=4, parent: est. 1.0, read off a plot.
CASP (encoded by CUX1; isoform 4), sequence (Q13948 whole entry, canonical isoform): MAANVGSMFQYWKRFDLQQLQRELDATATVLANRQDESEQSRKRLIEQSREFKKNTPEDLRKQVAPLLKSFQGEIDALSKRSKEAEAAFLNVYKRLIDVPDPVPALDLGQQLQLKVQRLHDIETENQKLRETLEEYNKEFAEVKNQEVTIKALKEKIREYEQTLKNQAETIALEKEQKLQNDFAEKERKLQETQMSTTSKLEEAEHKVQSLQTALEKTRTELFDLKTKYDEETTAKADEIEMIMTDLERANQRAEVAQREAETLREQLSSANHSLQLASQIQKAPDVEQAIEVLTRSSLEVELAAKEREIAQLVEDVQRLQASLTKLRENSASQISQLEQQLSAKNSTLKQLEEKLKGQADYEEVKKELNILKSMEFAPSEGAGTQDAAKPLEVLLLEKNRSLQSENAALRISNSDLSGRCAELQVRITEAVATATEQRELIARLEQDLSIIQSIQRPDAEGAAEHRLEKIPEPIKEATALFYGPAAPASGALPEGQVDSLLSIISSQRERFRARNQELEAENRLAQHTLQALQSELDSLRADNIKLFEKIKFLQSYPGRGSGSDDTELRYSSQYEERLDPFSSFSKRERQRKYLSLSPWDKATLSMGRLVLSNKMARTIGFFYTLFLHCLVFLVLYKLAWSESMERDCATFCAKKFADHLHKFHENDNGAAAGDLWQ

golgin-84 (also known as GOLGA5), sequence (Q8TBA6 whole entry, canonical isoform): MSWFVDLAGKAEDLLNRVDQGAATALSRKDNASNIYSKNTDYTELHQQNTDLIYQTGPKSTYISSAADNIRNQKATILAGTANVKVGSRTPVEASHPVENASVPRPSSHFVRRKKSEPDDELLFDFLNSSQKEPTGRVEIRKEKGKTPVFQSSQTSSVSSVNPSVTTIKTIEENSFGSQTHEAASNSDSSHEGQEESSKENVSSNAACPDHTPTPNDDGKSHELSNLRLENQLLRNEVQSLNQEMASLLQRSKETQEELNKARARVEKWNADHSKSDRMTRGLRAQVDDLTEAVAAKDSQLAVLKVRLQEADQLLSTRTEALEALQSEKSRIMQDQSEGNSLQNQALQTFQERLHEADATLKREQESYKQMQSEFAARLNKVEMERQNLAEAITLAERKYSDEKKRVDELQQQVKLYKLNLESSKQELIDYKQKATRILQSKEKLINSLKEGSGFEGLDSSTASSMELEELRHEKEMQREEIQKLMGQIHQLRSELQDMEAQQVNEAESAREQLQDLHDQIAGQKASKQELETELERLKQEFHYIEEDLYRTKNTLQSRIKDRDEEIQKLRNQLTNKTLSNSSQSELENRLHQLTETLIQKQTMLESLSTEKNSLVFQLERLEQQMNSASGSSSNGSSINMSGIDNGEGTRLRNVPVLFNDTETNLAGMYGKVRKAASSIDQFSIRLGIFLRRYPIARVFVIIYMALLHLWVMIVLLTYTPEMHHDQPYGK
c-Myc–TRC40 (wild-type TRC40, also known as ASNA1), O43681 D74E; L190K; I193K, sequence (O43681 whole entry D74E/L190K/I193K): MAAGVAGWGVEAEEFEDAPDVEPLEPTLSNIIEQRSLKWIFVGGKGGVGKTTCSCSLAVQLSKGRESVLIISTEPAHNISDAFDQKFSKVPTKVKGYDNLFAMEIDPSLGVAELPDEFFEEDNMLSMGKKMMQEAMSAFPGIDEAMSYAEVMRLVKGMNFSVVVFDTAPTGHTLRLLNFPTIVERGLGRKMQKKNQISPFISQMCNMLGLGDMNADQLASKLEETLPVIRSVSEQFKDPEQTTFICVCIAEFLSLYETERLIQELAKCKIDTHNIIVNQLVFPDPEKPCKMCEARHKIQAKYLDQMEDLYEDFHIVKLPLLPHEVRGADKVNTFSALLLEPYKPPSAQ
c-Myc–TRC40 (wild-type TRC40, also known as ASNA1), O43681 D74E, sequence (O43681 whole entry D74E): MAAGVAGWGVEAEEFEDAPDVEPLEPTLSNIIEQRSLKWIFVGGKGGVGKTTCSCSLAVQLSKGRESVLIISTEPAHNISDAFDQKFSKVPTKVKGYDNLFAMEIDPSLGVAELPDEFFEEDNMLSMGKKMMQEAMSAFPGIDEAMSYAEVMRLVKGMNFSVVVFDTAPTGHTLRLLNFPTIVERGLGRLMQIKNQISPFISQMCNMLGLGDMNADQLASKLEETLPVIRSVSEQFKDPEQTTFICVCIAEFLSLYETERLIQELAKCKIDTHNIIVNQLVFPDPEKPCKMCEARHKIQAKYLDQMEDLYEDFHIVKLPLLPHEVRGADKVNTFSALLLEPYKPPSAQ
c-Myc–TRC40 (wild-type TRC40, also known as ASNA1), O43681 D74E; L190D; I193D, sequence (O43681 whole entry D74E/L190D/I193D): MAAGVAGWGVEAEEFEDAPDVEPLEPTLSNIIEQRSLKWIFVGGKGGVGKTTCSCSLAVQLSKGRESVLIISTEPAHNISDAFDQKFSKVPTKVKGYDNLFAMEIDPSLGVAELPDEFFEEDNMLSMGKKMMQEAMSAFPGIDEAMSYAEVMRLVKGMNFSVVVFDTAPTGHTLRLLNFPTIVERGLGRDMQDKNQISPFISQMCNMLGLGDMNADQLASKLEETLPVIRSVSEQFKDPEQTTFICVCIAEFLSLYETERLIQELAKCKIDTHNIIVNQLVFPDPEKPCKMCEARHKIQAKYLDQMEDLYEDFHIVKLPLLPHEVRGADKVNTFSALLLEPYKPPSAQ

Turning to “c-Myc–TRC40 (wild-type TRC40, also known as ASNA1), O43681 D74E; L190K; I193K”, the ratio to parent in assay [1] came to 9; in assay [2], 14.

“c-Myc–TRC40 (wild-type TRC40, also known as ASNA1), O43681 D74E; L190D; I193D”: the ratio to parent in assay [1] is 21; in assay [2], 23.

As to “c-Myc–TRC40 (wild-type TRC40, also known as ASNA1), O43681 D74E”, the ratio to parent in assay [1] was determined as 13; in assay [2], 4.7.

Values taken from article PMC6633398.
